B1: HMOX1 (parent)
chain: YHIYVALEEEIERNKESPVFAPVY

Variants of: B1
Test: protein stability index of a GFP-peptide fusion (GPS, HEK-293T) (PSI 1-6); higher = more stable
Details: c terminus: a fixed tail appended
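Further: lentivirally expressed fusions sorted by FACS into six bins by GFP to DsRed ratio, PSI derived from sequencing read proportions per bin multiplied by bin number.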

Variant	protein stability index
YHIYVALEEEIRRNKESPVFAPVY [E12R]	1.62
YHIYVALEEEIHRNKESPVFAPVY [E12H]	1.58
YHIYVALEEEIDRNKESPVFAPVY [E12D]	1.43
YHIYVALEEEIKRNKESPVFAPVY [E12K]	1.94
YHPYVALEEEIERNKESPVFAPVY [I3P]	2.06
YHEYVALEEEIERNKESPVFAPVY [I3E]	2.33
YHFYVALEEEIERNKESPVFAPVY [I3F]	2.91
YHGYVALEEEIERNKESPVFAPVY [I3G]	2.77
YHTYVALEEEIERNKESPVFAPVY [I3T]	1.92
YHHYVALEEEIERNKESPVFAPVY [I3H]	2.29
YHQYVALEEEIERNKESPVFAPVY [I3Q]	2.27
YHCYVALEEEIERNKESPVFAPVY [I3C]	3.57
YHMYVALEEEIERNKESPVFAPVY [I3M]	1.77
YHRYVALEEEIERNKESPVFAPVY [I3R]	2.43
YHNYVALEEEIERNKESPVFAPVY [I3N]	2.12
YHVYVALEEEIERNKESPVFAPVY [I3V]	2.18
YHAYVALEEEIERNKESPVFAPVY [I3A]	1.42
YHLYVALEEEIERNKESPVFAPVY [I3L]	1.92
YHSYVALEEEIERNKESPVFAPVY [I3S]	2.26
YHYYVALEEEIERNKESPVFAPVY [I3Y]	1.91
YHKYVALEEEIERNKESPVFAPVY [I3K]	1.91
YHWYVALEEEIERNKESPVFAPVY [I3W]	2.12
YHDYVALEEEIERNKESPVFAPVY [I3D]	2.27
YHIYVALPEEIERNKESPVFAPVY [E8P]	2.49

Variant	protein stability index
YHIYVALYEEIERNKESPVFAPVY [E8Y]	1.05
YHIYVALMEEIERNKESPVFAPVY [E8M]	4.06
YHIYVALDEEIERNKESPVFAPVY [E8D]	1.53
YHIYVALSEEIERNKESPVFAPVY [E8S]	3.74
YHIYVALTEEIERNKESPVFAPVY [E8T]	2.19
YHIYVALHEEIERNKESPVFAPVY [E8H]	2.18
YHIYVALGEEIERNKESPVFAPVY [E8G]	3.48
YHIYVALIEEIERNKESPVFAPVY [E8I]	2.51
YHIYVALQEEIERNKESPVFAPVY [E8Q]	3.23
YHIYVALFEEIERNKESPVFAPVY [E8F]	2.43
YHIYVALNEEIERNKESPVFAPVY [E8N]	1.94
YHIYVALKEEIERNKESPVFAPVY [E8K]	2.07
YHIYVALREEIERNKESPVFAPVY [E8R]	2.42
YHIYVALAEEIERNKESPVFAPVY [E8A]	2.31
YHIYVALLEEIERNKESPVFAPVY [E8L]	2.49
YHIYVALVEEIERNKESPVFAPVY [E8V]	2.3
YHIYVLLEEEIERNKESPVFAPVY [A6L]	2.1
YHIYVPLEEEIERNKESPVFAPVY [A6P]	1.99
YHIYVVLEEEIERNKESPVFAPVY [A6V]	3.22
YHIYVQLEEEIERNKESPVFAPVY [A6Q]	2.42
YHIYVYLEEEIERNKESPVFAPVY [A6Y]	2.62
YHIYVTLEEEIERNKESPVFAPVY [A6T]	1.82
YHIYVDLEEEIERNKESPVFAPVY [A6D]	1.81

Source: the supplement of paper PMC10567573
